Common to all, as to test: cell-based or functional assay
Assay [1] concerns the target Abl(T315I)(h) (human) (UniProt P00519).
Assay [2] addresses T1, BrSK1(h) (human) (UniProt Q8TDC3).
T1 sequence (looked up): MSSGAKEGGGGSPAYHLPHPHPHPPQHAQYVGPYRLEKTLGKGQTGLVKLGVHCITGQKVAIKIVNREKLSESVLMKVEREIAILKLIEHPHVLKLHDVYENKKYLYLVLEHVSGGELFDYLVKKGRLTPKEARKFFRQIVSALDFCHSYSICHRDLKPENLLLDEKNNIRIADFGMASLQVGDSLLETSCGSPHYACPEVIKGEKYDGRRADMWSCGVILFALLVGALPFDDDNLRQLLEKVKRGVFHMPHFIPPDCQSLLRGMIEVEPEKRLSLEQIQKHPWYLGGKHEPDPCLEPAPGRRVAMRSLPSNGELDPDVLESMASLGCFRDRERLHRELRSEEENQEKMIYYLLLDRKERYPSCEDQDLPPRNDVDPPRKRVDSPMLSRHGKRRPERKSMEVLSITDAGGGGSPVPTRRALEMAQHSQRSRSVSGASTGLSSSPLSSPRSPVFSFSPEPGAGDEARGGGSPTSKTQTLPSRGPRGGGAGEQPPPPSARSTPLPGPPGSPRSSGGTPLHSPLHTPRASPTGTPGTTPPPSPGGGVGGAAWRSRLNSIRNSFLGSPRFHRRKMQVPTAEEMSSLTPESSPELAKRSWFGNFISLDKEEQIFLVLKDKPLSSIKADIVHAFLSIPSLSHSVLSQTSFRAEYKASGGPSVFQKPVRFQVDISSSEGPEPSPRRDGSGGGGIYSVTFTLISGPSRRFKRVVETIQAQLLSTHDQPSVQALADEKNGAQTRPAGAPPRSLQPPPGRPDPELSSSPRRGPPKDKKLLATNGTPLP

Assay [3] addresses T2, Flt3(D835Y)(h) (human) (UniProt P36888).
T2 sequence (looked up): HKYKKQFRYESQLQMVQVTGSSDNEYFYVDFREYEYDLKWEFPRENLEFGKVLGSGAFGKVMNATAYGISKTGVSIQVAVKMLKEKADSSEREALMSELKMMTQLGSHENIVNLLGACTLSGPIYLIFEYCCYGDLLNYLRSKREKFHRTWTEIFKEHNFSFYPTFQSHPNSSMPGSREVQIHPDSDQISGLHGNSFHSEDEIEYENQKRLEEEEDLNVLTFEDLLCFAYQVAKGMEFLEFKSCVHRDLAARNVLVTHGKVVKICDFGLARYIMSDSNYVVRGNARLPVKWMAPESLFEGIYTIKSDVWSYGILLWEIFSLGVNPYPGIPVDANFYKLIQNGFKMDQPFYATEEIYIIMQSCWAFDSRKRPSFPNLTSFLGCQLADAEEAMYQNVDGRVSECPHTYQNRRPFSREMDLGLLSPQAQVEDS

The target in assay [4] is T3, Fms(h) (human) (UniProt P07333).
T3 sequence (looked up): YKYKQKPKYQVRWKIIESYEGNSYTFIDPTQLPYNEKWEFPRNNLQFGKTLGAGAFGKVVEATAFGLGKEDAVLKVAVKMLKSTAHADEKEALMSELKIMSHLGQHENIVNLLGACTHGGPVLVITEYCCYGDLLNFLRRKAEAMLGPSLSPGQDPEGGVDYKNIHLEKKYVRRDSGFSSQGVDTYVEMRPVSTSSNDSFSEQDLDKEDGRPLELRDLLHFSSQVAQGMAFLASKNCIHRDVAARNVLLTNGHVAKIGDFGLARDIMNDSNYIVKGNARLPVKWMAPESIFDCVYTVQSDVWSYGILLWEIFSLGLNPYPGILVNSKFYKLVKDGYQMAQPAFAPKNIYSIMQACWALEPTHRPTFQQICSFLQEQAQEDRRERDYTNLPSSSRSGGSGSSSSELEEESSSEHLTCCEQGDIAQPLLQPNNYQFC

Assay [5] concerns the target T4, Itk(h) (human) (UniProt Q08881).
T4 sequence (looked up): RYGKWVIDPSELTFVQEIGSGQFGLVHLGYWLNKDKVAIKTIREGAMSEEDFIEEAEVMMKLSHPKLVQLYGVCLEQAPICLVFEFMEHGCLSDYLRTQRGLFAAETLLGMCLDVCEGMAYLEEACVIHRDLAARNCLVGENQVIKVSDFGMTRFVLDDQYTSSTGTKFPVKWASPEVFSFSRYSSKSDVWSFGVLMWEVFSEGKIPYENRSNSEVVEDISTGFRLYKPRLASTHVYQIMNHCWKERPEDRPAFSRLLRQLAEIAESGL

Assay [6] has as its target T5, LKB1(h) (human) (UniProt Q15831).
T5 sequence (looked up): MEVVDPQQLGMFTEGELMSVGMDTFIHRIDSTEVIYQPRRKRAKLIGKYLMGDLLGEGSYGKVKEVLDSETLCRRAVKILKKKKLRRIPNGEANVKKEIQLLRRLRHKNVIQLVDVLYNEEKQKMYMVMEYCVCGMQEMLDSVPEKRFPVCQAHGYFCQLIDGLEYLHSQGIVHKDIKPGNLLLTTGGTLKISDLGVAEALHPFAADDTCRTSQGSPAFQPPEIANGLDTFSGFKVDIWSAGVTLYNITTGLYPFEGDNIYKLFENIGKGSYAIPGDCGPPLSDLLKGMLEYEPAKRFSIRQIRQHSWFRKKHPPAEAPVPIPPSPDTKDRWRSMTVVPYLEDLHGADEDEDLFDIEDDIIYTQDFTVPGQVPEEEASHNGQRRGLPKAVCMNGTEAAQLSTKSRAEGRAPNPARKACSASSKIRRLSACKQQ

Assay [7] has as its target Met(h) (human) (UniProt P08581).
The target in assay [8] is Tie2(h) (human) (UniProt Q02763).

From patent publication US20140072613A1, “Compositions and Methods for Treating Cutaneous Scarring” (priority 2012, published 2014) come the findings set out here.

Chain of Abl(T315I)(h) (human) (P00519 27-1130 T315I limits assumed): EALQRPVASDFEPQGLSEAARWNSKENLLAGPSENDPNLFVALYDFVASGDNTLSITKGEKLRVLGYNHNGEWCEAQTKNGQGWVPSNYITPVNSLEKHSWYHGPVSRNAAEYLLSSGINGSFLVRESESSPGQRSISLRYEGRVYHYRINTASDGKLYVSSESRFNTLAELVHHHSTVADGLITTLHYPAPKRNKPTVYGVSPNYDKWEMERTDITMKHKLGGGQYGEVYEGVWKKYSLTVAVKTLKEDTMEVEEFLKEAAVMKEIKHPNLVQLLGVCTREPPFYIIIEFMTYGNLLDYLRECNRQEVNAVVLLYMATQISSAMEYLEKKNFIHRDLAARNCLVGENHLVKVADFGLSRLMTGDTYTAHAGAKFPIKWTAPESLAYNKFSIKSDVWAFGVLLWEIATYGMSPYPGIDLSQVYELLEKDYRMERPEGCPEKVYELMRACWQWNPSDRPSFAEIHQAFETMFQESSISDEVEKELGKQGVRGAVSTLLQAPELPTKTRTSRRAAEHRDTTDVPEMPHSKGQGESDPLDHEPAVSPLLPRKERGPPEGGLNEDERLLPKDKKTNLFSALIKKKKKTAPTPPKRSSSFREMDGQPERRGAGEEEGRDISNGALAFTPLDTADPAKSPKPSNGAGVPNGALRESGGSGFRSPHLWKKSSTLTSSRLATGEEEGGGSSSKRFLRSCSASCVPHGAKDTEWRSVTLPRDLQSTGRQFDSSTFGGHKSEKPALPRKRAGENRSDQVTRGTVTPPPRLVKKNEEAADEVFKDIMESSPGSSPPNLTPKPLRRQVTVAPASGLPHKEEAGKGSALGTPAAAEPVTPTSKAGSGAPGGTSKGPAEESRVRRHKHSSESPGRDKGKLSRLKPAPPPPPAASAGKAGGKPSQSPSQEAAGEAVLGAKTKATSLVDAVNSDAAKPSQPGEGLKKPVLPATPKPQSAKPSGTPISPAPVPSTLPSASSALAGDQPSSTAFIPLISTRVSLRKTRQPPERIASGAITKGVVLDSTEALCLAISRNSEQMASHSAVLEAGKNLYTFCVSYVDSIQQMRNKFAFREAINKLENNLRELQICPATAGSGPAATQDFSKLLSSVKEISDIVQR
Chain of Met(h) (human) (P08581 956-1390 limits assumed): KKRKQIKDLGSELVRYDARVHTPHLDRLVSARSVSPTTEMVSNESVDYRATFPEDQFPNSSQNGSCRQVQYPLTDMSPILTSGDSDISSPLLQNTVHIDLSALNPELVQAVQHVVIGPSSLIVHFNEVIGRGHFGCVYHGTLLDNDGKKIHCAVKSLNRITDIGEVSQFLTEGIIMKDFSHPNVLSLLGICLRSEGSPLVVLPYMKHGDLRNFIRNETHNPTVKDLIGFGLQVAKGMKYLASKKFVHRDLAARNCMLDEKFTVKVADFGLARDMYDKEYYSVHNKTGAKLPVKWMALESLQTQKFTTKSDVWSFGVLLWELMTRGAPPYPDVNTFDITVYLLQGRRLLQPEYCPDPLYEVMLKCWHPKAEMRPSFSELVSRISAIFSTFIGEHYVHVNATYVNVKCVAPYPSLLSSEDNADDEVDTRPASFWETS
Chain of Tie2(h) (human) (Q02763 771-1124 limits assumed): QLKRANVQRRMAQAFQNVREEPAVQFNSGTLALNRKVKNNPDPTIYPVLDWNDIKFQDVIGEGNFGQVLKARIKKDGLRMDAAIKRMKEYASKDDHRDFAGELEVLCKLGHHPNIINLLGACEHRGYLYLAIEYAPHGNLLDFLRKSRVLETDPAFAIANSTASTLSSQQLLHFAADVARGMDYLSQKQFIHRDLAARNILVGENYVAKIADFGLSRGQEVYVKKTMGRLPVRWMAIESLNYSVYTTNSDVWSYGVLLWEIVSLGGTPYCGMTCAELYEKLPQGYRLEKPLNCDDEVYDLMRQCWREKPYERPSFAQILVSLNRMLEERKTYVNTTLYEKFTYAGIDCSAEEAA

MMI-0500 (peptide): the % activity, 100 µM stood at 16% in assay [1]; 72% in assay [2]; 65% in assay [3]; 14% in assay [4]; 7% in assay [5]; 51% in assay [6]. Besides, the figures for the % activity, 100 µM in assay [7] and in assay [8] were 27% and 22%, respectively.
